Source: publication PMC10294441, “Characterization of 17β-estradiol-degrading enzyme from Microbacterium sp. MZT7 and its function on E2 biodegradation in wastewater” (Microbial Cell Factories, 2023)

Substrate: C[C@]12CC[C@@H]3c4ccc(O)cc4CC[C@H]3[C@@H]1CC[C@@H]2O
Assay: HPLC of estrone (E1) formation
Type: biochemical, Microbacterium resistens
Conditions: NAD+ (500 μM in the general assay), pH 7, MSM, 30 °C in the general assay, E2 0.018–0.40 mM

B1: 17β-HSD-0095 (Microbacterium resistens) (protein)
chain: MPTDPALPDPEPTKGNTMNRYEGRRALVTGGGSGIGQATVLRMLAEGGRVVAADVSPAGLADTVEKAGNAAARLTTVEVNVADEASVKAAVATAVDALGGLDVLVNAAGILRSSHTAETTLEQFETILRVNLVGTFLMIRESIPALLDGQDAAVVNFSSTSAMFAHPYMAAYAASKGGVQSMTHALAAEYAKQGIRFTAVQPGSISSGMTDGSGRSGQSAGPGLPEDADMSLFLKLAPAIGQGFAGPEAVAGVVAMLASADGAFITGTEVRIDGGTHF
notes: about 35 kDa on SDS-PAGE
Q: With B1 as the protein, how does the Km read?
A: 0.48 mM
